# Experimental data from US20230242675A1 (SHANGHAI EPIMAB BIOTHERAPEUTICS, published 2023).
# Tests used:
# [1] = target: T1, human PD-L1/His fusion protein (human, UniProt Q9NZQ7 19-239); assay: BLI Octet RED96, antibody on AHC sensor, single conc. PD-L1/His; test group 3
# Experimental: (§1) Briefly, antibodies were characterized for affinities and binding kinetics by Octet®RED96 biolayer interferometry (Pall ForteBio LLC). Antibodies were captured by Anti-hIgG Fc Capture (AHC) Biosensors (Pall) at a concentration of 100 nM for 30 seconds. Sensors were then dipped into running buffer (1×pH 7.2 PBS, 0.05% Tween 20, 0.1% BSA) for 60 seconds to check baseline. Binding was measured by dipping sensors into a single concentration of recombinant human PD-L1/His fusion protein (Novoprotein). Dissociation was followed by dipping sensors into running buffer for 1200 seconds. The association and dissociation curves were fitted to a 1:1 Langmuir binding model using ForteBio Data Analysis software (Pall). […] The off-rate ratio serves as a data normalization. Accordingly, in each test group, the off-rate ratios of the humanized antibodies can be compared with that of the chimeric antibody, and the off-rate ratios of each of the humanized antibodies can be compared to one another within all test groups.
# [2] = target: T1, human PD-L1/His fusion protein; assay: BLI off-rate; test group 3
# Experimental: as §1
# [3] = target: T1, human PD-L1/His fusion protein; assay: BLI Octet RED96, antibody on AHC sensor, single conc. PD-L1/His; test group 2
# Experimental: as §1, with “All 15 antibodies in Table 13 were assayed for and ranked by dissociation rate constant (koff). […] Briefly,” for “Briefly,”, “check the” for “check”
# [4] = target: T1, human PD-L1/His fusion protein; assay: BLI off-rate; test group 2
# Experimental: as §1, with “All 15 antibodies in Table 13 were assayed for and ranked by dissociation rate constant (koff). […] Briefly,” for “Briefly,”, “check the” for “check”
# [5] = target: T1, human PD-L1/His fusion protein; assay: BLI Octet RED96, antibody on AHC sensor, single conc. PD-L1/His; test group 4
# Experimental: as §1
# [6] = target: T1, human PD-L1/His fusion protein; assay: BLI off-rate; test group 4
# Experimental: as §1
# T1 sequence (Q9NZQ7 19-239 limits assumed): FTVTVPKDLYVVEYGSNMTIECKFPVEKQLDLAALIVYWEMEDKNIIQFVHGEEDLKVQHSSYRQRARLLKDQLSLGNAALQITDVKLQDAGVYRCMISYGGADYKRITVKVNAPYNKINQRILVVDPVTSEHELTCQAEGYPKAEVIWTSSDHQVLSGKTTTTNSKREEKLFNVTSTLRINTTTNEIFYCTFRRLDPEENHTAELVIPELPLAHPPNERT
koff [1],Off-Rate Ratio to that of EM0005-90c [2],koff [5],Off-Rate Ratio to that of EM0005-87c [6],Binder,also measured
0.000405 s⁻¹,106%,–,–,"HuEM0005-90-17 (antibody, human IgG1, V domains shown) VH: EVQLVQSGAEVKKPGASVKVSCKASGYTFTSHSINWVRQATGQGLEWMGYMYIGNGYTEYNEKFKGRVTLTSNTSISTAYMELSSLRSEDTAVYYCAKITPVVAPYVMDYWGQGTSVTVSS VL: DIVMTQSPSFLSASVGDRVTITCKASQDVGTAVAWYQQKPGKAPKLLIYWASTRHTGVPDRFTGSGSGTDFTLTISSLQPEDFATYYCQQYSSYPYTFGQGTKLEIK",–
0.000387 s⁻¹,101%,–,–,"HuEM0005-90-16 (antibody, human IgG1, V domains shown) VH: EVQLVQSGAEVKKPGASVKVSCKTSGYTFTSHSINWVRQATGQGLEWIGYMYIGNGYTEYNEKFKGRATLTSNTSISTAYMELSSLRSEDTAVYYCAKITPVVAPYVMDYWGQGTSVTVSS VL: DIQMTQSPSFLSASVGDRVTITCKASQDVGTAVAWYQQKPGKAPKLLIYWASTRHTGVPDRFTGSGSGTEFTLTISSLQPEDFATYYCQQYSSYPYTFGQGTKLEIK",–
0.000499 s⁻¹,131%,–,–,"HuEM0005-90-15 (antibody, human IgG1, V domains shown) VH: EVQLVQSGAEVKKPGASVKVSCKTSGYTFTSHSINWVRQATGQGLEWMGYMYIGNGYTEYNEKFKGRVTMTSNTSISTAYMELSSLRSEDTAVYYCAKITPVVAPYVMDYWGQGTSVTVSS VL: DIQMTQSPSFLSASVGDRVTITCKASQDVGTAVAWYQQKPGKAPKLLIYWASTRHTGVPDRFTGSGSGTEFTLTISSLQPEDFATYYCQQYSSYPYTFGQGTKLEIK",–
0.000334 s⁻¹,87%,–,–,"HuEM0005-90-18 (antibody, human IgG1, V domains shown) VH: EVQLVQSGAEVKKPGASVKVSCKASGYTFTSHSINWVRQATGQGLEWIGYMYIGNGYTEYNEKFKGRATLTSNTSISTAYMELSSLRSEDTAVYYCAKITPVVAPYVMDYWGQGTSVTVSS VL: DIVMTQSPSFLSASVGDRVTITCKASQDVGTAVAWYQQKPGKAPKLLIYWASTRHTGVPDRFTGSGSGTDFTLTISSLQPEDFATYYCQQYSSYPYTFGQGTKLEIK",–
–,–,0.00249 s⁻¹,–,"HuEM0005-90-20 (antibody, human IgG1, V domains shown) VH: EVQLVQSGAEVKKPGASVKVSCKTSGYTFTSHSINWVRQATGQGLEWIGYMYIGNGYTEYNEKFKGRATLTSNTSISTAYMELSSLRSEDTAVYYCAKITPVVAPYVMDYWGQGTSVTVSS VL: DIVMTQSPSFLSASVGDRVTITCKASQDVGTAVAWYQQKPGKAPKLLIYWASTRHTGVPDRFTGSGSGTDFTLTISSLQPEDFATYYCQQYSSYPYTFGQGTKLEIK",Off-Rate Ratio to that of EM0005-90c [6]: 111%

# Further lines, the binder ahead of its results:
Binder,koff [1],Off-Rate Ratio to that of EM0005-90c [2],koff [5],Off-Rate Ratio to that of EM0005-87c [6],also measured
"HuEM0005-90-13 (antibody, human IgG1, V domains shown) VH: EVQLVQSGAEVKKPGASVKVSCKASGYTFTSHSINWVRQATGQGLEWMGYMYIGNGYTEYNEKFKGRVTLTSNTSISTAYMELSSLRSEDTAVYYCAKITPVVAPYVMDYWGQGTSVTVSS VL: DIQMTQSPSFLSASVGDRVTITCKASQDVGTAVAWYQQKPGKAPKLLIYWASTRHTGVPDRFTGSGSGTEFTLTISSLQPEDFATYYCQQYSSYPYTFGQGTKLEIK",0.000439 s⁻¹,115%,–,–,–
"HuEM0005-90-14 (antibody, human IgG1, V domains shown) VH: EVQLVQSGAEVKKPGASVKVSCKASGYTFTSHSINWVRQATGQGLEWIGYMYIGNGYTEYNEKFKGRATLTSNTSISTAYMELSSLRSEDTAVYYCAKITPVVAPYVMDYWGQGTSVTVSS VL: DIQMTQSPSFLSASVGDRVTITCKASQDVGTAVAWYQQKPGKAPKLLIYWASTRHTGVPDRFTGSGSGTEFTLTISSLQPEDFATYYCQQYSSYPYTFGQGTKLEIK",0.000376 s⁻¹,98%,–,–,–
"HuEM0005-86-7 (antibody, human IgG1, V domains shown) VH: EVQLVQSGAEVKKPGASVKVSCKASGYTFTTYGINWVRQAPGQGLEWIGYIYIGNGYTEYNEKFKGRVTLTSDPSTRTAYMELSSLRSDDTAVYYCARDLMVIAPKTMDYWGQGTTVTVSS VL: DIQMTQSPSSVSASVGDRVTITCKASQDVGTAVAWYQQKPGKAPKLLIYWASTRHTGVPDRFTGSGSGTDFTLTISSLQPEDFATYYCQQYSSYPYTFGGGTKVEIK",–,–,–,–,koff [3]: 0.00131 s⁻¹; Off-Rate Ratio to that of EM0005-86c [4]: 73%
"HuEM0005-86-8 (antibody, human IgG1, V domains shown) VH: EVQLVQSGAEVKKPGASVKVSCKASGYTFTTYGINWVRQAPGQGLEWMGYIYIGNGYTEYNEKFKGRVTMTTDTSTSTAYMELSSLRSDDTAVYYCARDLMVIAPKTMDYWGQGTTVTVSS VL: DIQMTQSPSSVSASVGDRVTITCKASQDVGTAVAWYQQKPGKSPKLLIYWASTRHTGVPDRFTGSGSGTDFTLTISSLQPEDFATYFCQQYSSYPYTFGGGTKVEIK",–,–,–,–,koff [3]: 0.00155 s⁻¹; Off-Rate Ratio to that of EM0005-86c [4]: 87%
"EM0005-90c(G55A) (antibody, human IgG1, V domains shown, Chimeric antibody with G55A in CDR-H2; also called HuEM0005-90C-G55A) VH: QVQLKQSGAELVRPGSSVKMSCKTSGYTFTSHSINWVKQRPGQGLEWIGYMYIGNAYTEYNEKFKGKATLTSDTSSTTAYMQLSSLTSEDSAIYFCAKITPVVAPYVMDYWGQGTSVTVSS VL: DIVMTQTHKFMSTSVGDRVSITCKASQDVGTAVAWYQQKPGQSPKLLIYWASTRHTGVPDRFTGSGSGTDFTLTISNVQSEDLADYFCQQYSSYPYTFGGGTKLELK",–,–,0.00255 s⁻¹,–,Off-Rate Ratio to that of EM0005-90c [6]: 113%
"HuEM0005-87-19 (antibody, human IgG1, V domains shown) VH: EVQLVQSGAEVKKPGASVKVSCKASGYSFTDYYINWVRQAPGQGLEWIGETIPNTGGTTYNQKFKAKATLTVDKSTSTAYMELSSLRSEDTAVYYCARYQSGSPFAYWGQGTTVTVSS VL: EIVMTQSPATLSVSPGERATLSCKASQNVGTAVAWYQQKPGQAPRLLIYSASNRYTGVPDRFTGSGSGTEFTLTISSLQSEDFAVYYCQQHYSTPYTFGGGTKLEIK",–,–,0.000782 s⁻¹,87%,–
"HuEM0005-87-21 (antibody, human IgG1, V domains shown) VH: EVQLVQSGAEVKKPGASVKVSCKASGYTFTDYYINWVRQAPGQGLEWMGETIPNTGGTTYNQKFKARVTMTVDTSTSTVYMELSSLRSEDTAVYYCARYQSGSPFAYWGQGTTVTVSS VL: DIVMTQSPATLSVSPGERATLSCKASQNVGTAVAWYQQKPGQAPRLLIYSASNRYTGVPDRFTGSGSGTDFTLTISSLQSEDFAVYYCQQHYSTPYTFGGGTKLEIK",–,–,0.000522 s⁻¹,58%,–
"HuEM0005-87-20 (antibody, human IgG1, V domains shown) VH: EVQLVQSGAEVKKPGASVKVSCKASGYSFTDYYINWVKQAPGQGLEWIGETIPNTGGTTYNQKFKAKATLTRDKSTSTAYMELKSLRSEDTAVYYCARYQSGSPFAYWGQGTTVTVSS VL: EIVMTQSPATLSVSPGERATLSCKASQNVGTAVAWYQQKPGQAPRLLIYSASNRYTGVPDRFTGSGSGTEFTLTISSLQSEDFAVYYCQQHYSTPYTFGGGTKLEIK",–,–,0.000801 s⁻¹,89%,–
"HuEM0005-87-23 (antibody, human IgG1, V domains shown) VH: EVQLVQSGAEVKKPGASVKVSCKASGYTFTDYYINWVRQAPGQGLEWIGETIPNTGGTTYNQKFKARVTLTVDKSTSTVYMELSSLRSEDTAVYYCARYQSGSPFAYWGQGTTVTVSS VL: DIVMTQSPATLSVSPGERATLSCKASQNVGTAVAWYQQKPGQAPRLLIYSASNRYTGVPDRFTGSGSGTDFTLTISSLQSEDFAVYYCQQHYSTPYTFGGGTKLEIK",–,–,0.000905 s⁻¹,101%,–
"HuEM0005-87-24 (antibody, human IgG1, V domains shown) VH: EVQLVQSGAEVKKPGASVKVSCKASGYSFTDYYINWVRQAPGQGLEWIGETIPNTGGTTYNQKFKAKATLTVDKSTSTAYMELSSLRSEDTAVYYCARYQSGSPFAYWGQGTTVTVSS VL: DIVMTQSPATLSVSPGERATLSCKASQNVGTAVAWYQQKPGQAPRLLIYSASNRYTGVPDRFTGSGSGTDFTLTISSLQSEDFAVYYCQQHYSTPYTFGGGTKLEIK",–,–,0.00101 s⁻¹,113%,–
"HuEM0005-87-22 (antibody, human IgG1, V domains shown) VH: EVQLVQSGAEVKKPGASVKVSCKASGYTFTDYYINWVRQAPGQGLEWMGETIPNTGGTTYNQKFKARVTLTVDTSTSTVYMELSSLRSEDTAVYYCARYQSGSPFAYWGQGTTVTVSS VL: DIVMTQSPATLSVSPGERATLSCKASQNVGTAVAWYQQKPGQAPRLLIYSASNRYTGVPDRFTGSGSGTDFTLTISSLQSEDFAVYYCQQHYSTPYTFGGGTKLEIK",–,–,0.000738 s⁻¹,82%,–
